Columns and labels:
[1] = system: MS2 coat protein; test: apparent KD of MS2 coat protein, switch ON state; designed switch direction (-1 OFF switch, 1 ON switch): 1; higher = weaker reporter binding; conditions: FMN input: 0 or 200 uM; Eterna round: R93 (includes R88 designs)
Summary of the method: (§1)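 Binding of SNAP-549-labelled MS2 coat protein was measured on designed RNA switches transcribed on-chip from Illumina sequencing clusters. The protein rose in twofold steps from 0.7 or 1.5 nM to 3 µM, with 0.8–1.5 h per step early on and 10–20 min per step later, in 100 mM Tris-HCl pH 7.5, 80 mM KCl, 4 mM MgCl2, without or with constant ligand. Each design's apparent KD is the median of fits to its normalised cluster binding curves.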

[2] = system: MS2 coat protein; test: apparent KD of MS2 coat protein, switch OFF state (with FMN for OFF switches, without FMN for ON switches); designed switch direction (-1 OFF switch, 1 ON switch): 1; higher = weaker reporter binding; conditions: FMN input: 0 or 200 uM; Eterna round: R93 (includes R88 designs)
Summary of the method: as §1

| Sequence | apparent KD of MS2 coat protein [1] | apparent KD of MS2 coat protein [2] |
| --- | --- | --- |
| GAAAUAAAAACACAGGAUAUCCAAAAGAAAACAUGAGGAUCACCCAUGUAAAGAAAAUAAAAAUGGGAGAAGGGUGAAAAUAAAG [Mat - Same State 2 - JL mod - D25] | 26.4 nM | 93.8 nM |
| AUAAAACAUGAGGAUCACCCAUGUAGAAAUAUGGGAGGAUAUACAAAGACGAAAGUCGAAGUAGAAGGCCUAAAAG [Mat - Same State 1 - Meechl mod - D117] | 27.4 nM | 68.3 nM |
| AAAAGACAUGAGGAUCACCCAUGUCAAGACGUAGGAGGAUAUGUCGUGAAAAAAGACUUGGCAGAAGGCCUGUGUC [SS1 - 41] | 15 nM | 21.4 nM |
| AUUUUACAUGAGGAUCACCCAUGUUUUGGUGGAUCAGGAUAUAAAUUGAAUGAGUUUUAGUUAGAAGGGAUAUAUA [JR_SS001_Sub505] | 78.4 nM | 54 nM |
| AUAAAAACGUAUGAGGAUAUCCAAAAUAAAACAUGAGGAUCACCCAUGUGAAUAAAAUAACAAUGGGAGAAGGCAUACGUAUCAU [SS 2 M 53] | 12.5 nM | 28.8 nM |
| GGAACACAUGAGGAUCACCCAUGUCAAGGAGGUCGAGGAUAUAGGAAAAAAAAAAAAAAAUUAGAAGGUGAGGAGG [V1] | 169 nM | 139 nM |
| CCUAGACAUGAGGAUCACCCAUGUCGAACAAACAAAGGAUAUGGGAGCCGAAGAAGGCUAUUAGAAGGUUGCAAAU [Aisedbi] | 29.4 nM | 34 nM |
| AUAUAUAUAAGGUAGGAUAUCCAAAAGUAAACAUGAGGAUCACCCAUGUAAAAAAUCUAAAAAUGGGAGAAGGACCAUAUAUAUA | 19 nM | 37.1 nM |
| AAAAGACAUGAGGAUCACCCAUGUAAAAACAUAGGAGGAUAUGUCGUGAAAAAAGACUUGGCAGAAGGCCUUUGUC [SS1 - 45] | 48.1 nM | 76.4 nM |
| AUCUAACAUGAGGAUCACCCAUGUAUUCAAAAACAAGGAUAUAUAACAAACAAACAACAAAUAGAAGGUGUAAAUA [Default title] | 19 nM | 19.6 nM |
| GAAAAACAUGAGGAUCACCCAUGUGAGAACAUGGGAGGAUAUACGAGGACGAAAGUCAAAGUAGAAGGCCUAAGAG [Garnet 86] | 164 nM | 30 nM |
| AAAAGACAUGAGGAUCACCCAUGUCAAAACGUAGGAGGAUAUGUCGUGAAAAAAGACUUGGCAGAAGGCCUGUGUC [SS1 - 42] | 15.4 nM | 19.5 nM |
| ACAAAACAUGAGGAUCACCCAUGUCAGAAAUGGCAAGGAUAUAGAAAACAAAAACAAAAACUAGAAGGUGCAAAAC [Meechl SS1 R2 m3] | 84.8 nM | 154 nM |
| AUAAAUAAAAUCGAGGAUAUCCAAUAAUAAACAUGAGGAUCACCCAUGUAAAAGAAAAUAUAAUGGGAGAAGGCGAAUAAUAAAU [JR_SS002_Sub1701] | 16.3 nM | 20 nM |
| AUAAAACAUGAGGAUCACCCAUGUAGAAAUAUGGGAGGAUAUACUAGAUCGAAAGAUCUAGUAGAAGGCCUUAAAG [JL Mod of Eli 3] | 31.7 nM | 52.6 nM |
| GCGAAUAUGGGUUAGGAUAUGCGCGCAUGUACAUGAGGAUCACCCAUGUUUACGGGCGCCUUUGAGCAGAAGGAGCUAAUCAACGC [SameState2Try2_Neo] | 21.5 nM | 24.2 nM |
| GAAAAACAUGAGGAUCACCCAUGUAGAGAUAUGGGAGGAUAUACGAAGACGAAAGACGAGGUAGAAGGCCUAAAAG [Garnet 57] | 66.1 nM | 218 nM |
| UUUAGGAAGAGAGAGGAUAUCCAAAGGAAAACAUGAGGAUCACCCAUGUAAAAGGUAGGAAAUUGGGAGAAGGCUCAAGAGAGAG [salish99-ss2-078] | 5.84 nM | 16.5 nM |
| CAACAGAGAGGACAGGAUAUGUCGUGAUAAACAUGAGGAUCACCCAUGUGAGACAUCACGUAGUCGCAGAAGGGUCCCGUCUUAC [Esleerandi] | 15.3 nM | 18.8 nM |
| AGGAAACAUGAGGAUCACCCAUGUAAAAAUAUGGGAGGAUAUGCGAAAAGAAACAAAGAAGCAGAAGGCCUAAGAA [75%, Ex5 sub 1, 7] | 11.9 nM | 155 nM |
| AACAAUCUAUCUGAGGAUAUGUGUCGAAAGACAUGAGGAUCACCCAUGUAAAAACAUGAAAAAUCACAGAAGGCAGAUAGAUUGA [SS2: 1144] | 59.3 nM | 144 nM |
| AAUCCAACUAGUCAGGAUAUCAGGCGUAAGACAUGAGGAUCACCCAUGUACUUAGUACAAGUAACUGAGAAGGGACAGGGUGACC [JR_SS002_Sub409] | 75.4 nM | 75.5 nM |
